Test results taken from the DeepSol protein solubility set.

assay: soluble on expression in E. coli; label from the status in PepcDB or PDB records

Soluble on expression in E. coli, not soluble:
TQSLSNTFDSAIDDQLANVDVVMSGEKAPMPRGLIDELREDKDHVAAVAVQGATSAVLATEDRKAIQTGAASPTIGIFYGEGSAATTPEKITSGKEPHEANEVLAPESAAELGIKEGSTVVVVDEAGQREVKVVGTYSTEATAHPGVNLLMGEKAFLDRYQPEFIGTIFVKKADGSSEDVVQYLKDKYPDFKVDTGASLAEELTKTIKKALSFVNY
TRAMEEALFQHFMHQKLGIAYAIHKPFPFFEGLLDNSIITKRMYMESLEACRNLIPVSRVVHNILTQLERTFNLSLLVTLFSQINLREYPNLVTIYRSFKRVGASY
TRGAKDTVMIVNAQGGMEPREVTVAQQQGTNWIVTSGLKDGDKVVVEGISIAGITGAKKVTPKEWASSENQAAAPQSGVQTASEAKPASEAK
TSDQRKAEEHIEKEAKYLASLLDAGNLNNQANEKIIKDAGGALDVSASVIDTDGKVLYGSNGRSADSQKVQALVSGHEGILSTTDNKLYYGLSLRSEGEKTGYVLLSASEKSDGLKG
TTAYMEYNTTGSVKGLDNVKIRRALNLATNRKGVVQAAVDTGSKPAIAFAPTGLAKTPDGTDLAKYVAPGYEYNKTEAAKLFKEGLAESGLTKLKLTITADADAPAAKNSVDYIKSTWEAALPGLTVEEKFVTFKQRLEDSRKQNFDIVVSLWGGDYPEGSTFYGLFKSDSQNNDGKFANKDYDAAYNKAISEDAMKPAESAKDYKEAEKILFEQGAYNPLYFRSGKGLQNPKLKGVIRNTTGLSIDFTHAYKK
TTNLFGFGIDAESRLDLNSKDMTPEKKAKAESETKRLQEFIRYANLDEGTETVFQNIIEDQEKTGNGYIEVLRDGKGQPVELVHCDSQYIRVCKKTEPVEVGYTIMEKGEPVNILRNKRFRKFVQIIDEKKVWFKEYGDPRIMDSTNGNYVEESELESKEFRDATEIIHFKIGTSAYGVPRWIGNVVSLYGARKAEELNLLYFVNGRHVPAAVVVQGGLLDEDAYNNLEEYMKGVSGTENAYQFLVLEVQGEEITNANGDKNLSDVKVEIKSLADMIQKDAMFLEYDATHRKKMRSSFRLPPIYTGEADEYNKATAETARKTTEEQVFQPMRRKLARKINGAFLEALDISEAKLVLKSPDLTDIASISNAIYPFISAASVIPNDLRPMLE
VADATTLAVVGPGVMAKTITEACIAERPGITTIKIKGRSERGINAFATWALEKFPEIEVVAVGSEEDVVKDADIVIAATTTDAAGSSAFPYFKKEWLKPGALLLLPAAGRFDDAYLLDDARLVVDYMGLYEAWAEEYGPQAYQLLGIPGTHWYDLALQGKLDLAKISQIGDICSGKLPGRTNDEEIILYSVGG
VARAVGKENKSEFGVPSVVEMRPPALCEGCGHRDMYITLTEVLKEEYPSHKVFSDIGCYTLGANAPFNAINSCVDMGASITMAKGAADGGLHPSVAVIGDSTFTHSGMTGLLDCVNENANVVIVISDNETTAMTGGQDSAGTGRIESICIGLGVDPAHIRVVVPLKKNHEEMRQIIREEIEYNGVSVIIPRRECIQTLARKKRSK
VDQVFVVGHKNLDMDALGSAVGMQLFASNVIENSYALYDEEQMSPDIERAVSFIEKEGVTKLLSVKDAMGMVTNRSLLILVDHSKTALTLSKEFYDLFTQTIVIDHHRRDQDFPDNAVITYIESGASSASELVTELIQFQNSKKNRLSRMQASVLMAGMMLDTKNFTSRVTSRTFDVASYLRTRGSDSIAIQEIAATDF
VFLGKTSPDFNLGWSNSLSYKGFGLSFLINGRFGGVVTSSTQAILDRFGVSKASAEARDAGGVLLPGQGRVDAQSYYQLIGTGDYTTSGYYVYSATNIRLQELTLSYRFPDLWFKNVLKDVTLSFIANNPWMLYSKAPHDPELTPSVGTYGQGNDYFMQPSVRSFGFGIKFKL
VFLPTNAQYQLLVVGVSPWDTPSPSGRISWGSAWPHQARRAQTCQRVRRHWMIDTTEAAYRLTYQPDGTSITVRENLVDILARELLGPIRGPQEVLPFSPRSQYLVGHLAPVKLTGAALIDDNAVQARANAEALAEGGGVPAYAADETTPTPTTTPKTAHPSRA
VIGDMNPDFLGSVSTGLTWKNLSFRMALDMRFGGKVAVYGNRYGTAYGWTESSLKFRDEAHGGMTWTSQYLNADGSQSGSYGVTYHDGMIPQGIFASGTQVTGIDGKTHDVSGMSYQQAYENGILEPMHAASYYNYANQWSTGVTNDGWIHDLKYIALREITVGYTFPSNIAGKIGAKRLGVSFSARNLGYLYNSLPNDVNPEGVRGNLSGEFRIRSFDPYTANYTMTINVGF
VKSNKGFEAIAWDPLRQRLIIGEERPPKLYTWNTDGRSPLKGEKQPLPSDELDLRNLSALGVDPRTGHLLVLSADSNMLLELDEQGQQVSFMTLLGGFNGLE
VLDDEEKIVDLSSSIEKFLDFAPGSLAGVALSEILHPEDYLHFKTALDRQKPHEAVLMFYSRFKTGDGSWLNVEWSLSIKRKPMTDQYEYTIILRKTDNPLF
VLQTRNYTCGPAALVTVLQRLGVNTTEDELAGLAGTTEDGTTMQGLLEASRAKGVNATGMKLNISELKENMIAYTINDGTGHYTVINGITNDTVKLADPSLGNIEMNIEEFTEIYSGYALVINDPNNPR
VLSARCHIRHIGSPGKDARCAHLSATLRPGIGISPTNVGNATVLADGTPAKPIQGAETMQRARHTGSCFSANARGPAISSGNPSRAGCGVPSSTTTPSSTPQAIRLLACTDSDALTVTRTAR
VPFDPGKIERAIAAAGQATGEFDPQQAQALAERVVERLPERACLDIERVQDLVERVLMEAGHYPTARAYVVYRERHGRLRRERKTLVDVAASMNEYLSREDWRVRANANQGYSLGGLILNVSGKVTANYWLDEVYDADIAAAHRDADLHIHDLDMLAGYCAGWSLRTLLNEGLNGVPGRVEAGPPKHLGSALGQMVNFLGTLQNEWAGAQAFSSFDTYLAPYVRKDRLDYASVRQALQEFIYNLNVPSRWGTQTPFTNLTFDWVCPDDLRDQVPRIGGEEMPFAYGELQAEMDLINRAYIEVMQAGDAHGRVFTFPIPTYNITHDFPWDSDNATRLFEMTARYGLPYFQNFLNSDMQPNQVRSMCCRLQLDVRELLKRGNGLFGSAEQTGSLGVVTINCARLGYRHRGDAAGLYRQLDHLLELAFASLELKRKVIQQHMDAGLYPYTRRYLGTLRNHFSTIGVNGLHEMVRNFSDDREGLHSEAGREMALALLDHVRARLVGFQEDSGHLYNLEATPAEGTTYRFAREDRKRYPRILQAGTPEAPYYTNSSQLPVGFTDDPFEALELQDALQCKYTGGTVLHLYMAERISSAEACKTLVRTALGRFRLPYLTVTPTFSICPRHGYLAGEHEFCPKCDEELLQRSTPKSCCGGC
VTQLPQPTWRWWQQRETEQVQSSHIDGEIVGALIPDLAVLHSEDASRAAVGREKHRCSLDPLGGGFRSRRASMPAGALLLSAVIAIQLDRMNARVFGDGWIGAQACMWVNKFHEESTVTALSPSSPIAQGSIARHPETMQSAYVRIAEGGSRDVAPAAQLQRRRP

Soluble on expression in E. coli, soluble:
TRGGDSAAAPLDPPKSTATRCLSCNKKVGVTGFKCRCGSTFCGTHRYPESHECQFDFKGVA
TSALAPVAAIIPPPPDVQPVIDKLAEYVARNGLKFETSVRAKNDQRFEFLQPWHQYNAYYEFKKQFFLQKEGGDSMQAVSAPE
TTILKHLPVGQRIGIAFSGGLDTSAALLWMRQKGAVPYAYTANLGQPDEEDYDAIPRRAMEYGAENARLIDCRKQLVAEGIAAIQCGAFHNTTGGLTYFNTTPLGRAVTGTMLVAAMKEDGVNIWGDGSTYKGNDIERFYRYGLLTNAELQIYKPWLDTDFIDELGGRHEMSEFMIACGFDYKMSVEKAYSTDSNMLGATHEAKDLEYLNSSVKIVNPIMGVKFWDESVKIPAEEVTVRFEQGHPVALNGKTFSDDVEMMLEANRIGGRHGLGMSDQIENRIIEAKSRGIYEAPGMALLHIAYERLLTGIHNEDTIEQYHAHGRQLGRLLYQGRWFDSQALMLRDSLQRWVASQITGEVTLELRRGNDYSILNTVSENLTYKPERLTMEKGDSVFSPDDRIGQLTMRNLDITDTREKLFGYAKTGLLSSSAASGVPQVENLENKGQSVEHHHHHH
TTTLAFRFQGGIIVAVDSRATAGNWVASQTVKRVIEINPFLLGTMAGGAADCQFWETWLGSQCRLHELREKERISVAAASKILSNLVYQYKGAGLSMGTMICGYTRKEGPTIYYVDSDGTRLKGDIFCVGSGQTFAYGVLDSNYKWDLSVEDALYLGKRSILAAAHRDAYSGGSVNLYHVTEDGWIYHGNHDVGELFWKVKEEEGSFNNVIG
TVPGATTTSSAATETMENVKKCKNFLSTLIKLASSGKQSTETAANVKELVQNLLDGKIEAEDFTSRLYRELNSSPQPYLVPFLKRSLPALRQLTPDSAAFIQQSQQQPPPPTSQ
VAKKKRKLKVIPLGGLGEIGKNITVFEYGDDIFVVDCGIAFPEDDMLGIDLVIPDISYLTKNREKVRGIVLTHGHEDHIGALPYVLKDLNVPVYGTKLTLGLLEQKLEEHGLLNNVVLNVVKHSDVIELGCFKVEFIRSTHSIADSTALAIFTPVGTIFHTGDFKIDYTPIEGEPIDLARLAELGKKGVLLLMCDSTNVEREGYTMSEKTVGETFDEIFMNAKNRILVATFASNVHRIQQIVNAAIKFGRKIAICGRSMVNVVNVAMELGYMNVPEGLIIDIDHINKYPPEKIVIITTGSQGEPMSALTRMASGDHKKVEIIPGDLVIISANPIPGNEKLVSRVVNDLFKKGAEVIYESLADIHVSGHASQEELKLIHRLIRPKYFMPVHGEYRHLKRHANLAVELGMSPENIFIMDIGKVLELTNDSAKINGSVNAGRVLVDGLGVGDVGNIVLRDRKHLSQDGLIVVVITIEGDTGNVIAGPDVISRGFVYVRESEDLMEEIREVCKAALQKCNDKKKNDWSTKKSIIRDALRDFLYERTKRRPMILPIIMEV
VILKEEFRGVIIKQGCLLKQGHRRKNWKVRKFILREDPAYLHYYDPAGAEDPLGAIHLRGCVVTSVESNSNGRKSEEENLFEIITADEVHYFLQAATPKERTEWIKAIQMASRTGK
VNKSELIEAIAQEADISKAAAQKALDATTNAVTTALKQGDTVTLVGFGTFYVGERAERQGRNPKTGEPLTIAAAKTPKFRAGKALKDAL
VRSYLLRIELADRPGSLGSLAVALGSVGADILSLDVVERGNGYAIDDLVVELPPGAMPDTLITAAEALNGVRVDSVRPHTGLLEAHRELELLDHVAAAEGATARLQVLVNEAPRVLRVSWCTVLRSSGGELHRLAGSPGAPETRANSAPWLPIERAAALDGGADWVPQAWRDMDTTMVAAPLGDTHTAVVLGRPGPEFRPSEVARLGYLAGIVATMLR
VTSDPGTAAPVKRTAEQSRSLIVDAAGRAFATRPYREITLKDIAEDAGVSAPLIIKYFGSKEQLFDALVDFRAAAEIVFSGPLDGLGERMVSMFARPLEPYKPLSLNILFMSGPSEESSRKLRANYSAQMIDALAERLPGRDARLRAELVMSMLTGLAVMRRKMMQEHATGTPEEVVAHYAPLVQELLDG
